Results on 1 molecule are retold here after US20100183625A1, “Treatment of Mucositis with Kallikrein Inhibitors” (Dyax Corp., priority 2009, published 2010).

In test [1] the test system is fXIa, plasmin, and trypsin. Briefly: Specificity with respect to other serine proteases. The class given is biochemical. The settings on record: IgG; Table 14.
Another test addresses prekallikrein (Homo sapiens, UniProt P03952). The experiment in a line: Surface plasmon resonance (SPR) assay for binding to prekallikrein. The settings on record: IgG; Table 14. The method, then: Antibodies that bound prekallikrein may be rendered inaccessible towards active plasma kallikrein inhibition and could substantially increase the in vivo dose required for efficacy. […] Specifically, human IgGs (X81-B01, M162-A04 (R84-H05); M160-G12 (R84-D02); and M142-H08) were captured on a CM5 chip using an anti-human Fc surface and 100 nM of plasma kallikrein or 100 nM or 500 nM prekallikrein. The prekallikrein was treated with aprotinin-sepharose to remove active plasma kallikrein.

Test [2] deals with pKal from different species. Briefly: Kallikrein activity in activated citrated plasma of different species. It is filed as biochemical. The settings on record: all the species except for pig. The text has this:
(§1) All available sequence of pKal were obtained from public databases and aligned using ClustalW and regions were highlighted based on solvent accessibility, contact with an active site Kunitz inhibitor, and those peptides identified by CLIPS analysis (FIGS. 9A-9C). Citrated plasma from each of these species was obtained and activated using a commercially available prekallikrein activator (from Enzyme Research Laboratories) according to the instructions of the manufacturer. Kallikrein activity was then measured in each of the samples in the presence or absence of […]-B01.

For a further test, the system named is pig pKal. The experiment in a line: Kallikrein activity in activated citrated plasma, pig. It is filed as biochemical.
From the text: as §1

Test [3] has as its target T1, human plasma kallikrein (human pKal) (Homo sapiens, UniProt P03952).
T1 construct: two disulfide linked polypeptides; a heavy chain of approximately 52 kDa and a catalytic domain of approximately 34 kDa; host or cells: human plasma
Briefly: Ki,app against human pKal by steady state enzyme kinetics (in vitro protease cleavage assay, Pro-Phe-Arg-aminomethylcoumarin substrate). It is filed as biochemical. The text has this:
The inhibition constant (Ki) provides a measure of inhibitor potency; it is the concentration of inhibitor required to reduce enzyme activity by half and is not dependent on enzyme or substrate concentrations. The apparent Ki (Ki,app) is obtained at different substrate concentrations by measuring the inhibitory effect of different concentrations of inhibitor (e.g., inhibitory binding protein) on the extent of the reaction (e.g., enzyme activity); fitting the change in pseudo-first order rate constant as a function of inhibitor concentration to the Morrison equation (Equation 1) yields an estimate of the apparent Ki value. The Ki is obtained from the y-intercept extracted from a linear regression analysis of a plot of Ki,app versus substrate concentration.
Where v=measured velocity; v0=velocity in the absence of inhibitor; Ki,app=apparent inhibition constant; I=total inhibitor concentration; and E=total enzyme concentration.
The sequence of human plasma kallikrein that was used in selections and subsequent screening of binding proteins is shown below (accession number NP_000883.2). The human plasma kallikrein (86 kDa) that was used was purified from human plasma and activated with factor XIIa by a commercial vendor. Factor XIIa activates prekallikrein by cleaving the polypeptide sequence at a single site (between Arg371-Ile372, cleavage site marked by “/” in the sequence below) to generate active plasma kallikrein, which then consists of two disulfide linked polypeptides; a heavy chain of approximately 52 kDa and a catalytic domain of approximately 34 kDa [Colman and Schmaier, (1997) “Contact System: A Vascular Biology Modulator With Anticoagulant, Profibrinolytic, Antiadhesive, and Proinflammatory Attributes” Blood, 90, 3819-3843]
These antibodies were produced as Fab fragments in small scale (˜20 μg) and tested for inhibition against human pKal in an in vitro protease cleavage assay using Pro-Phe-Arg-aminomethylcoumarin as the synthetic peptide substrate. […] Five antibodies were then expressed in 293T cells and purified by protein A sepharose chromatography. The antibodies were analyzed by SDS-PAGE to determine which of the inhibitory mutants are not cleaved by the host cell protease(s) (data not shown).

For another test, the system named is frog pKal. Briefly: Kallikrein activity in activated citrated plasma, frog. The class given is biochemical.
From the text: as §1

Test [4] deals with T1, human plasma kallikrein (human pKal). Briefly: Ki,app against human pKal by steady state enzyme kinetics (in vitro protease cleavage assay, Pro-Phe-Arg-aminomethylcoumarin substrate). Particulars: IgG. The class given is biochemical.
For the next test, the target named is T2, rat pKal (Rattus norvegicus, UniProt P14272).
T2 construct: active plasma kallikrein (pkal) has the single polypeptide chain cleaved at a single position
The experiment in a line: Ki,app against rat pKal. The settings on record: IgG, Table 14, read-out: < nM Ki, app against rodent pKal. The class given is biochemical. The method, then: (§2) Fourth, antibodies were tested for their ability to inhibit pKal from other species, besides human, where the amino acid sequence of pKal has been determined in order to identify amino acids that may account for the differences in inhibition.

The target in test [5] is T3, pKal (Homo sapiens, UniProt P03952).
T3 construct: two disulfide linked polypeptides; a heavy chain of approximately 52 kDa and a catalytic domain of approximately 34 kDa; host or cells: human plasma
The experiment in a line: Competition for binding with aprotinin. The settings on record: IgG; Table 14. The text has this: The region of pKal bound by selected anti-pKal antibodies was investigated using several methods. First, competition assays were used to determine whether the antibodies competed for binding to pKal with known active site-directed inhibitors. Second, antibodies were grouped according to whether they were inhibitors or just binders to pKal. Third, epitopes were investigated using synthetic peptides and peptidic structures based on the sequence and 3-dimensional structure of pKal. These peptidic structures are called “CLIPS” (Chemically Linked Peptides on Scaffolds) and the testing was performed by a fee for service company called Pepscan.

Test [6] addresses T3, pKal. Briefly: BIACORE SPR competition with EPI-KAL2 for binding pKal. The settings on record: IgG captured on chip, pKal 100 nM, 1 μM EPI-KAL2. On the procedure: FIG. 7A depicts the EPI-KAL2 competition for X81-B01 binding pKal. X81-B01 (IgG) was captured on an anti-human Fc fragment specific surface of a CM5 BIACORE® chip. pKal (100 nM) was flowed over the surface in the presence (lower sensorgram in the figure) or absence of 1 μM EPI-KAL2 (upper sensorgram in the figure).
FIG. 7B depicts the EPI-KAL2 competition for X67-D03 binding pKal. X67-D03 (IgG) was captured on an anti-human Fc fragment specific surface of a CM5 Biacore chip. pKal (100 nM) was flowed over the surface in the presence (lower sensorgram in the figure) or absence of 1 μM EPI-KAL2 (upper sensorgram in the figure).
Using a BIACORE® SPR assay antibodies of interest were tested for competion with a known active site inhibitor of pKal. EPI-KAL2 is potent (Ki,app=0.1 nM) active site inhibitor of pKal and a Kunitz domain inhibitor based on the first domain of tissue factor pathway inhibitor (Markland (1996) Iterative optimization of high-affinity protease inhibitors using phage display. 2. Plasma kallikrein and thrombin, Biochemistry 35(24):8058-67). Kunitz domains are known active site inhibitors of serine proteases, such as pKal.
As shown in FIGS. 7A-7B, the antibodies X81-B01 and X67-D03 were competed for binding to pKal in the presence or EPI-KAL2.
(SPR reads the build-up and loss of mass on a sensor chip optically.)

The next test has as its target T4, mouse pKal (Mus musculus, UniProt P26262).
T4 construct: active plasma kallikrein (pkal) has the single polypeptide chain cleaved at a single position
Briefly: Ki,app against mouse pKal. The class given is biochemical. Particulars: mouse; IgG; Table 14; read-out: < nM Ki, app against rodent pKal. On the procedure:
as §2
Antibodies that inhibit the activity of pKal either bind near the active site and preclude substrate interactions (competitive inhibitors) or that bind away from the active site and induce allosteric changes in the structure of the active site (noncompetitive inhibitors).

The next test relates to bradykinin generation. The experiment in a line: Inhibition of bradykinin generation. The settings on record: IgG; Table 14. The class given is biochemical.
Test [7] has as its target T3, pKal. Briefly: Inhibition of pKal in presence of prekallikrein. It is filed as biochemical. The settings on record: IgG; Table 14.

Like-named read-outs stand apart in the source and are kept apart here.

T1 sequence (P03952 391-638 limits assumed): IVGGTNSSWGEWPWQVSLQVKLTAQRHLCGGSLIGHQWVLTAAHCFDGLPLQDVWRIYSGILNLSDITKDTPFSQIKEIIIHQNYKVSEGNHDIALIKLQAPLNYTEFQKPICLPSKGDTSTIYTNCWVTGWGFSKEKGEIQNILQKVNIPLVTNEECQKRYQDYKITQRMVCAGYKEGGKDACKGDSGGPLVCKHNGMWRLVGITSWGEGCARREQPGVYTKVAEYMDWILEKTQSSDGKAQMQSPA
T1 sequence (P03952 20-390 partner limits assumed): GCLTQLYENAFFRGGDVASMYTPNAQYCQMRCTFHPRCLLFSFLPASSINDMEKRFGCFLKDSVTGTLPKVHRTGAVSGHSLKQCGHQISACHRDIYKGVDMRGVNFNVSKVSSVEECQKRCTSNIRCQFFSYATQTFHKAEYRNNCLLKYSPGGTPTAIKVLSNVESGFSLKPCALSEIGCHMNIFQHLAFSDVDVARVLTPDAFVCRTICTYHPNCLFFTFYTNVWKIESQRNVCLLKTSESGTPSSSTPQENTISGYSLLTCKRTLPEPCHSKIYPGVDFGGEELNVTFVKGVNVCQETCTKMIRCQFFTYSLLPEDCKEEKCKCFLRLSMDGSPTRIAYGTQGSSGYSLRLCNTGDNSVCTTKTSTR
T3 sequence (P03952 391-638 limits assumed): as the sequence (P03952 391-638 limits assumed) above
T3 sequence (P03952 20-390 partner limits assumed): as the sequence (P03952 20-390 partner limits assumed) above
prekallikrein, sequence (P03952 20-638): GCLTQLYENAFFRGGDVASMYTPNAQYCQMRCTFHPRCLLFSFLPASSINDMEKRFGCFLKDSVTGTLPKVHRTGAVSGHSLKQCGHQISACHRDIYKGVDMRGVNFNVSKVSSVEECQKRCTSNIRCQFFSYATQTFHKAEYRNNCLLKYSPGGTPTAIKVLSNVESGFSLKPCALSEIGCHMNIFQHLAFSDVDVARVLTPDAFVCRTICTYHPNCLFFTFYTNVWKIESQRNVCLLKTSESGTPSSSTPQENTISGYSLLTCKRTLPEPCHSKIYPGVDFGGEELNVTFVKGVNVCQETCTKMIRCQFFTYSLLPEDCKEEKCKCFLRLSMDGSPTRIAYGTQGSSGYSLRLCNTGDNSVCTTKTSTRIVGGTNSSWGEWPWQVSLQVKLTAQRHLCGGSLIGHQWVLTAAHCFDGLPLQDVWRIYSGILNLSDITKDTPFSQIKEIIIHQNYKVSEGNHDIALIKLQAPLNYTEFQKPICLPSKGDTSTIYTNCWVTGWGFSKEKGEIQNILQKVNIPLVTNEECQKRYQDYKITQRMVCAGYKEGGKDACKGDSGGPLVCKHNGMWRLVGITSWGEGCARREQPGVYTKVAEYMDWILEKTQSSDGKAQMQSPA
T2 sequence (P14272 391-638 limits assumed): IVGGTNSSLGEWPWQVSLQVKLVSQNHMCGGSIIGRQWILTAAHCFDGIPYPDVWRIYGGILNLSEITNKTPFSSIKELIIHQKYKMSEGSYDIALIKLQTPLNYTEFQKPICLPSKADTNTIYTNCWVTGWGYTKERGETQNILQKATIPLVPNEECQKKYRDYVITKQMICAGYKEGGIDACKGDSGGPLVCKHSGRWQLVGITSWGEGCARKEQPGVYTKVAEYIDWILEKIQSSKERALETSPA
T2 sequence (P14272 20-390 partner limits assumed): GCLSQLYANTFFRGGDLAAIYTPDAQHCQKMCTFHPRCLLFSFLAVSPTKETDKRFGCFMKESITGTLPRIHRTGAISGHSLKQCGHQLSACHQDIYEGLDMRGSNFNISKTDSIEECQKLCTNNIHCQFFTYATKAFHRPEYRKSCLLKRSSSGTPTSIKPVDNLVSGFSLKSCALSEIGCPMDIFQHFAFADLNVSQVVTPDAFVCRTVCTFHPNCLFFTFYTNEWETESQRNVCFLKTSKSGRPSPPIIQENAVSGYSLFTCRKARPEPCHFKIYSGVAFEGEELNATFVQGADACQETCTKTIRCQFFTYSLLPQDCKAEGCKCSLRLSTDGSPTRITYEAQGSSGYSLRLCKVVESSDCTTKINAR
pig pKal, sequence (as listed by the source): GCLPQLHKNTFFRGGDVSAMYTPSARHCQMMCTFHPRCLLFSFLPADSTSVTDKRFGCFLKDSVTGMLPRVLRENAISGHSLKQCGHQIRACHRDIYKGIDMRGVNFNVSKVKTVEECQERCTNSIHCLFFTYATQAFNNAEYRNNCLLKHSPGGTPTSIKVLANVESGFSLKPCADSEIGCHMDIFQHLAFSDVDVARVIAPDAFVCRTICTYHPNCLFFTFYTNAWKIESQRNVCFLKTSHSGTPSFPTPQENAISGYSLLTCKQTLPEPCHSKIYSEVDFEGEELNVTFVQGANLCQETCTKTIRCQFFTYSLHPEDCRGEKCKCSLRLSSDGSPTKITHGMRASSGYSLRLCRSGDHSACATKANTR
pig pKal, sequence (as listed by the source): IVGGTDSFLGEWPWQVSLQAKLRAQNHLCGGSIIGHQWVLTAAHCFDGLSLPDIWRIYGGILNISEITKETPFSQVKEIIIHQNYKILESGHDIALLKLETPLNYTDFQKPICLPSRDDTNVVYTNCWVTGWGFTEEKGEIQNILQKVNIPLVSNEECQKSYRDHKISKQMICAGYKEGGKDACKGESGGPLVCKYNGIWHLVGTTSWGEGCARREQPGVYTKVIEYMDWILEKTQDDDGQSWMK
T4 sequence (P26262 391-638 limits assumed): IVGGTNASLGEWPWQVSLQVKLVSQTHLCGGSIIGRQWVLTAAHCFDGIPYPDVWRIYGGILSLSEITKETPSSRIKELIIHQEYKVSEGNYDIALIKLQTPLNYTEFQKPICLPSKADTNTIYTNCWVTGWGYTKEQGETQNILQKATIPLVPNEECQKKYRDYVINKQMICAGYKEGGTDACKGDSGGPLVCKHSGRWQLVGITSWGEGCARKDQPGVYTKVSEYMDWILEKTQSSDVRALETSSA
T4 sequence (P26262 20-390 partner limits assumed): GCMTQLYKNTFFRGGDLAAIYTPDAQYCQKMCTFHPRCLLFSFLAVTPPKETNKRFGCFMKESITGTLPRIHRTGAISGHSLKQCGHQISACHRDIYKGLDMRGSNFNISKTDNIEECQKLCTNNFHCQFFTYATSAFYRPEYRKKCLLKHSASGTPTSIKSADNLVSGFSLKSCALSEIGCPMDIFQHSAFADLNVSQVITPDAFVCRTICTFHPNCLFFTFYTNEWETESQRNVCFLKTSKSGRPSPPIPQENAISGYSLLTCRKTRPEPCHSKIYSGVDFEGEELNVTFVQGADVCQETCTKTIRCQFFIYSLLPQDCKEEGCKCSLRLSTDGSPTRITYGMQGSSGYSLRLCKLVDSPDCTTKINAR

B1: X81-B01: codon optimized and germlined version of X63-G06 as a full length human IgG produced in CHO cells (antibody, chains of the INN, looked up, V domains shown)
VH: EVQLLESGGGLVQPGGSLRLSCAASGFTFSHYIMMWVRQAPGKGLEWVSGIYSSGGITVYADSVKGRFTISRDNSKNTLYLQMNSLRAEDTAVYYCAYRRIGVPRRDEFDIWGQGTMVTVSS
VL: DIQMTQSPSTLSASVGDRVTITCRASQSISSWLAWYQQKPGKAPKLLIYKASTLESGVPSRFSGSGSGTEFTLTISSLQPDDFATYYCQQYNTYWTFGQGTKVEIK
modifications: IgG
notes: codon optimized and germlined version of X63-G06 as a full length human IgG produced in CHO cells
For B1, the “Specific inhibitor with respect to fXIa, plasmin, and trypsin” value in test [1] is recorded as “yes”. Moreover, the “Does not bind prekallikrein” value with prekallikrein is on record as “no”. Also, the “inhibition of pKal from different species” value in test [2] is given as “inhibited”. For the same molecule, the “inhibition of pig pKal” value with pig pKal is “lack of inhibition”. Besides, the Ki was 0.2 nM in test [3] (Table 6, read-out: Human pKal (Ki, app nM)); 0.1 nM in test [3] (Table 15, read-out: human Ki, app); 0.2 nM in test [4] (Table 11, read-out: Ki, app); 0.2 nM in [4] (Table 14, read-out: < nM Ki, app against human pKal); around 0.2 nM in [4] (pKal, germlined and sequence optimized for CHO cell expression, read-out: Ki,app); 0.14 nM in the test with rat pKal. The Ki with mouse pKal turned out to be 0.011 nM. For the same molecule, the “inhibition of frog pKal” value in the test on frog pKal is “inhibited”. For the same molecule, the “Competition for binding with aprotinin” value in the test with pKal [5] was “yes”. In addition, in the test with pKal [6], the “competition for binding to pKal in the presence of EPI-KAL2” value is “competed”. Moreover, in the test with bradykinin generation, the Inhibits bradykinin generation result is “yes”. The “Inhibits pKal in presence of prekallikrein” value in the test with pKal [7] is listed as “yes”.
